Assay results taken from the supplement of paper PMC9170038.

Tested on: MS2 coat protein
Experiment: apparent KD of MS2 coat protein; designed switch direction (-1 OFF switch, 1 ON switch): -1; higher = weaker reporter binding
Procedure, shortened: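 Designed RNA switches sharing common flanks were transcribed on Illumina chips by stalled E. coli RNA polymerase. They were titrated with SNAP-549-labelled MS2 coat protein, from 0.7 or 1.5 nM doubling to 3 µM, in Tris-HCl pH 7.5 buffer with KCl, MgCl2, BSA, DTT, tRNA and Tween-20. Titrations ran without input, with 200 uM small-molecule ligand, or with an oligonucleotide input. The apparent KD of each design is the median over its clusters, after curve-fitting of normalised cluster fluorescence.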

[1] = input ligand: microRNA oligo, concentration not stated
[2] = Eterna round: R95, input ligand: microRNA oligo, concentration not stated
[3] = Eterna round: R95, input ligand: FMN 200 uM
[4] = Eterna round: R95, input ligand: none

Sequence	apparent KD of MS2 coat protein (input ligand: FMN 200 uM)	apparent KD of MS2 coat protein [1]	apparent KD of MS2 coat protein (input ligand: none)	apparent KD of MS2 coat protein [2]	apparent KD of MS2 coat protein [3]	apparent KD of MS2 coat protein [4]
GGUCCACAUGAGGAUCACCCAUGUUAGGAUAUCUCCUGCCUCCUAAAUGGAAGCAGACAGAGAAGGAACAUCAA [Soanatra] (Eterna round: R96, puzzle: Exclusion 1)	0.113 µM	0.0218 µM	0.0254 µM	–	–	–
CUCAUGUGAGGAUAUGUGAUCUGCUUUCUGUGUAGAUGAUCACAGAAGGCACAUGAGGAUCACCCAUGUAGAUC [Ex4 - 3 - 28] (puzzle: Exclusion 4)	–	–	–	0.0675 µM	–	–
GCAGCUAAUGCAGGAUAUCAGCACGAUUAGUGCUGAGAAGGGCACAUGAGGAUCACCCAUGUGAUCAAUUAAUAUUAAUGCUGC [ENG1/11-B1] (Eterna round: R96, puzzle: Exclusion NG 1)	0.184 µM	0.024 µM	0.0251 µM	–	–	–
CUUUUUGUUGAGGAUAUGCACCAGCUCACUGACGCAGAAGGCGACACAUGAGGAUCACCCAUGUCAGUUCGCGU [salish99_ex6_r004_431] (Eterna round: R97, puzzle: Exclusion 6)	0.0215 µM	–	0.0168 µM	–	–	–
UAUAUAUAGUAAGGAUAUGUAUUAAUUUUAGAAACAGAAGGUACUGACAUGAGGAUCACCCAUGUUUUAGUGUGGGCAUGUAGA [JMF's solution 88] (Eterna round: R96, puzzle: Exclusion NG 1)	–	0.0757 µM	–	–	–	–
AGAUGGAUUGCUAGAAAACUAGUAAUUCAUCAAUCAAGCACAUGAGGAUCACCCAUGUCUUAGAGUACGUGAGUACA [JL gull wing 9] (Eterna round: R96, puzzle: Sensor v2, turn-off variant 2)	0.0128 µM	0.0125 µM	0.016 µM	–	–	–
AAAAAACAAGGAUAUACAAAAAAAAAAUGUGUUAAAUUUUCACAUGAGGAUCACCCAUGUAGAAGGUGUAAAAA [JR_Exclusion2_Sub005] (puzzle: Exclusion 2)	–	–	–	0.0491 µM	0.046 µM	0.0517 µM
UCACGGGACUGAGGAUAUACAUUUAUUAUUUUAGUAGAAGGCAGAAAGUUAGUUUUUUCACUAUACAUGAGGAUCACCCAUGUU [JR_ExcNG1_Sub085] (Eterna round: R96, puzzle: Exclusion NG 1)	0.0212 µM	0.0204 µM	0.0291 µM	–	–	–
UUUUAACAUGAGGAUCACCCAUGUGAGGAUAUCGAAAUUUAUAUUAAUAUUAUUUUUACGAGAAGGCACAUUUU [JMF 50] (puzzle: Exclusion 1)	–	–	–	0.0992 µM	–	–
CAGUACUGAGGAUAUACAUGAGGAUCACCCAUGUGUUCCAGCUUGGAAACUAGCAAAAGUAGAAGGCAGUACUG [salish99_ex3_r3_097x] (puzzle: Exclusion 3)	–	–	–	0.0166 µM	–	–
CUAAAUCAUGUAGGAUAUGCGUGGCAAAGCUAUGCAGAAGGACAUGAGGAUCACCCAUGUGCUUCCGUCUGCGUACAGACGGUA [Mat - Exclusion NG 1 - Mod of JL - D21] (Eterna round: R96, puzzle: Exclusion NG 1)	0.551 µM	0.0792 µM	0.111 µM	–	–	–
GAAGAACAUGAGGAUCACCCAUGUGAGGAUAUGAAAAAGAAAAGAAAAGAAAGAAGAAUCAGAAGGCACAAAGG [Mat - Mod of Hog D2] (puzzle: Exclusion 1)	–	–	–	0.0231 µM	0.0508 µM	0.0383 µM
UCAUGUAUGUAGGAUAUCGAUGUCCUUGGACAUCGAGAAGGACGUACAUGAGGAUCACCCAUGUAACUUGCAUG [Exclusion 6 - B - 11:d] (puzzle: Exclusion 6)	–	–	–	0.0187 µM	–	–
UCAUGGUAGCAGGAUAUGCUAGAAAUUUUUUAUGCAGAAGGGCUUACAUGAGGAUCACCCAUGUGUUAGGUCUA [JR_E6_Sub070] (puzzle: Exclusion 6)	–	–	–	0.0508 µM	0.0472 µM	0.0485 µM
CGGAAGAUCGAAGGAUAUUGAGACAAACAGUGUCAAGAAGGUUGGGAGGACACAUGAGGAUCACCCAUGUCCAACUUUUGACGG [Eternabot solution 26] (Eterna round: R96, puzzle: Exclusion NG 1)	0.0127 µM	0.00976 µM	0.0124 µM	–	–	–
GUACUGAAGCAUAGCUUUAGUCGUACAUGAGGAUCACCCAUGUAGGAUAUGGUAGGCAUAGCUUACUAGAAGGAUAGAGUGAUC [Mat - Exclusion NG 3 - Mod of JL - D72] (Eterna round: R96, puzzle: Exclusion NG 3)	0.44 µM	0.0716 µM	0.137 µM	–	–	–
AAGUCGGCAGGAUAUACAUGAGGAUCACCCAUGUAAAUUUUUCGUUUAACUUGAAUGUGUAGAAGGGCCAUAAA [Ex3 #66] (Eterna round: R97, puzzle: Exclusion 3)	0.0243 µM	–	0.0245 µM	–	–	–
UAUUUAUAUGAAGGAUAUACUUAACAUGAGGAUCACCCAUGUGGUGUUGUGAGUGAGUGAGUUUAGUAGAAGGUCAAUUCUUUU [JMF's solution 96] (Eterna round: R96, puzzle: Exclusion NG 2)	0.893 µM	0.415 µM	0.448 µM	–	–	–
GAAAAGGUAGGAUAUACGAAUAAAAAGGGUAGAAAAAAAACACAUGAGGAUCACCCAUGUAGAAGGACCAAAAG [salish99_ex2_r3_085] (puzzle: Exclusion 2)	–	–	–	0.025 µM	0.0677 µM	0.0244 µM
GAGUACUGAGGAUAUACAUGAGGAUCACCCAUGUGUUCCAACUAGGAAUCUAGAGUAUGUAGAAGGCAGUGCUG [salish99_ex3_r4_704] (Eterna round: R97, puzzle: Exclusion 3)	0.145 µM	–	0.13 µM	–	–	–
CUCAUGCCUGAGGAUAUGCUGUACAAAAGUACUGCAGAAGGCAGGACAUGAGGAUCACCCAUGUGGCGAAAGCC [Omei Ex G10] (Eterna round: R97, puzzle: Exclusion 6)	0.0134 µM	–	0.198 µM	–	–	–
AGUCCACAUGAGGAUCACCCAUGUCAGGAUAUCUGCUGGAAGAGGGCAGAAAGCCAGGAGAGAAGGGACCUGGG [Usarila] (puzzle: Exclusion 1)	–	–	–	0.034 µM	–	–
GCUGCGCGAGGAUAUGCGGUUCGGGCGGUGGCCGCUGGCGGACAUGAGGAUCACCCAUGUAGAAGGCGUGCGGG [Apr-15 SS2-61] (puzzle: Exclusion 2)	–	–	–	0.0149 µM	–	–
ACAUGAGGAUCACCCAUGUCUGGCUGGUCCGCUCCGGCUGUUGAGGAUAUAGUUCGGUGUUCGCGCUAGAAGGUGAGGGCUGGC [Aenatbe mod 36] (Eterna round: R96, puzzle: Exclusion NG 3)	0.0277 µM	0.0244 µM	0.0388 µM	–	–	–
GCUUGGCGAGGAUAUACAUGAGGAUCACCCAUGUGAGAGAAUAAAGUGAGGAAGAAAAGUAGAAGGCGCUGAGG [Mat - Exclusion 3 - Mod of Salish D58] (puzzle: Exclusion 3)	–	–	–	0.0404 µM	0.199 µM	0.0404 µM
AGAUGGCGAGGAUAUACAUGAGGAUCACCCAUGUGAGAGAUUAGAGUGAGGAAGAAAAGUAGAAGGCGCUGUCA [Mat - Exclusion 3 - Mod of Salish D18] (puzzle: Exclusion 3)	–	–	–	0.0984 µM	0.167 µM	0.144 µM
